How the values were obtained:
[1] = test system: human LPA gene (Genbank number: NM_005577.4); assay: Inhibitory activity against LPA mRNA, psiCHECK-2 dual-luciferase reporter vector in Huh7 cells; format: cell-based; settings: Huh7 cells transfected with LPA_psiCHECK-2 plasmid, RNAiMAX transfection
Method in brief: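 Huh7 cells transfected with psiCHECK-2 carrying human LPA, then treated next day with compounds (3 concentrations) delivered by RNAiMAX. Dual-Glo readout of firefly and Renilla luciferase per well. Percent inhibition calculated from the reporter ratio relative to the RNAiMAX control.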

LPA mRNA = assay: In vivo efficacy in LPA-HDI mouse model (liver LPA mRNA); set-up: species or system BALB/c mouse; settings: 3 mg/kg single subcutaneous injection, Day 14, relative to PBS blank group, 4 mice per group
Description: The knockdown effect of the test double-stranded siRNA conjugate on the target gene LPA upon entry into the mouse is evaluated by rapid high-pressure injection of the physiological saline containing recombinant plasmid pcDNA-LPA carrying the target gene via the tail vein.
pcDNA-LPA plasmid, BALB/c mouse, PBS (phosphate buffer), and conjugates of the present invention.
Six-week-old female BALB/c mice were ordered and acclimated/quarantined for three days upon arrival in the animal room.
On Day 0, the mice were randomly grouped based on body weight data. After grouping, all mice were given a single administration via subcutaneous injection, with a dose volume of 10 mL/kg. Mice in Group 1 received PBS; mice in the other groups received the conjugates (dissolved in PBS).
On Day 13 post-administration, all mice were injected with normal saline containing the pcDNA-LPA plasmid via the tail vein within 5 seconds. The injection volume (mL) = mouse body weight (g) × 8%. The amount of plasmid injected per mouse was 10 µg.
On Day 14 post-administration, all groups of mice were euthanized by CO2 inhalation, and 2 liver samples were collected from each mouse. Liver samples were treated overnight with RNAlater at 4 °C, then RNAlater was removed, and stored at -80 °C for detection of LPA gene expression levels.

hPBMCs = assay: Immunogenicity test in hPBMCs (IL-6 and TNF-α ELISA of supernatant); format: cell-based, human; settings: donor 1 hPBMCs, 18-20 h
Description: 1 Experimental material • 1.1 Double-stranded siRNA conjugates • 1.2 hPBMCs, purchased from Shanghai Sailybio Medical Co., LTD. • 1.3 Main reagents: Penicillin-Streptomycin (Cat. No.: 15140122), RNase-free water (Cat. No.: AM9938), IL-6 ELISA kit (Cat. No.: 555220), TNF-α ELISA kit (Cat. No.: 555212), LPS (Cat. No.: L2630), etc. 2 Experimental method • 2.1 Compound Preparation: Compounds were prepared as stock solutions with enzyme-free water. Compound weight = powder weight * purity. The concentration of prepared solutions was 900 µg/mL, followed by three-fold serial dilution with enzyme-free water. Each concentration was diluted 10-fold with 1640 medium, resulting in a final enzyme-free water content of 5.0%. • 2.2 Experimental procedure: • 2.2.1 PBMC cells were resuscitated one day in advance and incubated overnight in 1640 complete medium. • 2.2.2 On the day of the experiment, PBMC cells were centrifuged at 300 × g for 8 minutes, and the cell density was adjusted to 1.6 × 10^6 mL with 1640 complete medium. The cells were then added to a 96-well plate, 125 µL per well, and incubated in a 37 °C, 5% CO2 incubator for 15 minutes. • 2.2.3 The diluted test compounds were added to the 96-well plate according to the plate map, all in duplicate, 125 µL for each well; the positive control group and the blank group were added with an equal volume of 1640 complete culture medium containing the same amount of enzyme-free water. • 2.2.4 After gently shaking, the well plates were incubated in an incubator at 37 °C for 18-20 h. The supernatant was collected by centrifugation, and secretions of TNF-α and IL-6 were detected by ELISA. • 2.2.5 Data were analyzed using GraphPad Prism 8 software. 3 Experimental results Table 10. IL-6 and TNF-α levels in the cell supernatant of donor 1 hPBMCs treated with different doses of test compounds

## Z27: siRNA conjugate: sense SEQ ID NO:43, ligand D18 at 3' end of sense strand, antisense SEQ ID NO:66 (sense CAGCCCCTTATTGTTANACGA; antisense TCTCGTATNACAATAAGGGGCTG; ligand D18 at sense 3' end; listed as RNA; modified_base 1: mod_base = OTHER; note = 2'-O-methylcytidine; modified_base 2: mod_base = OTHER; note = 2'-O-methyladenosine; modified_base 3: mod_base = OTHER; note = 2'-O-methylguanosine; modified_base 4..7: mod_base = OTHER; note = 2'-O-me; note = 2'-O-methyluridine; modified_base 4: mod_base = OTHER; note = 2'-fluorocytidine; modified_base 5: mod_base = OTHER; note = 2'-O-methylg)
[1]
  EC50: 960 pM
LPA mRNA
  % Downregulation of LPA mRNA: 92.2%

## Z33: siRNA conjugate: sense SEQ ID NO:47, ligand D18 at 3' end of sense strand, antisense SEQ ID NO:72 (sense GCCCCTTATTGTTANACGA; antisense TCGTATNACAATAAGGGGCTGT; ligand D18 at sense 3' end; listed as RNA; modified_base 1: mod_base = OTHER; note = 2'-O-methylguanosine; modified_base 2: mod_base = OTHER; note = 2'-O-methylcytidine; modified_base 3..5: mod_base = OTHER; modified_base 6: mod_base = OTHER; note = 2'-O-met; note = E-type vinylphosphonate-modified 2'-O-methyluridine; note = 2'-fluorocytidine; modified_base 3: mod_base = OTHER; modified_base 4: mo)
LPA mRNA
  % Downregulation of LPA mRNA: 79.2%

## Z41: siRNA conjugate: sense SEQ ID NO:49, ligand D01 at 3' end of sense strand, antisense SEQ ID NO:79 (sense CAGCCCCTTATTGTTATACGA; antisense NCGTATNACAATAAGGGGCNGTT; ligand D01 at sense 3' end; listed as RNA; modified_base 1: mod_base = OTHER; note = 2'-O-methylcytidine; modified_base 2: mod_base = OTHER; note = 2'-O-methyladenosine; modified_base 3: mod_base = OTHER; note = 2'-O-methylguanosine; modified_base 4..7: mod_base = OTHER; note = 2'-O-me; note = n is B29; note = 2'-deoxycytidine; modified_base 4: mod_base = OTHER; note = 2'-O-methyluridine; m)
hPBMCs; 5 µg/mL
  IL-6: 1362.7 pg/mL
  TNF alpha: 37.3 pg/mL
hPBMCs; 15 µg/mL
  IL-6: 2424.8 pg/mL
  TNF alpha: 94.0 pg/mL
hPBMCs; 45 µg/mL
  IL-6: 1537.6 pg/mL
  TNF alpha: 44.7 pg/mL
[1]
  EC50: 90 pM

## Z52: siRNA conjugate: sense SEQ ID NO:53, ligand D01 at 3' end of sense strand, antisense SEQ ID NO:88 (sense CTTGCCAAGCTTGGTCATCTA; antisense TCTAGATGNCCAAGCTTGGCAAG; ligand D01 at sense 3' end; listed as RNA; modified_base 1: mod_base = OTHER; note = 2'-O-methylcytidine; modified_base 2: mod_base = OTHER; note = 2'-O-methyluridine; modified_base 3: mod_base = OTHER; modified_base 4: mod_base = OTHER; note = 2'-O-methylgua; note = 2'-fluoroadenosine; modified_base 5: mod_base = OTHER; note = 2'-O-methyl)
[1]
  EC50: 140 pM

— patent publication EP4707393A1, “DOUBLE-STRANDED SIRNA, CONJUGATE THEREOF AND USE THEREOF” (CMS Research & Development Pte. Ltd., priority 2023, dated 2024)
